Like-named read-outs stand apart in the source and are kept apart here.
What was measured:
[1] = target: Human FcγRIIIa_V158 (human)
[2] = target: Human FcγRIIIa_V158 (human); remark: listed apart in the source

| relative ADCC activity (NK cell line expressing FcγRIIIa V158; target cells expressing a receptor of the EGFR family; relative to a reference material set to 100%) [1] | relative ADCC activity (NK cell line expressing FcγRIIIa V158; target cells expressing a receptor of the EGFR family; relative to a reference material set to 100%) [2] | Substance |
| --- | --- | --- |
| 115% |  | IgG1, di-sialylated variant (antibody) |
|  | 118% | IgG1, hyper-galactosylated variant (antibody) |
|  | 66% | IgG1, hypo-galactosylated variant (antibody) |
| 104% |  | IgG1, mono-sialylated variant (antibody) |

Reference: PMC4534130
